From publication PMC10971408
Where “and” joins values, the source holds several entries; their conditions need not be identical. Equal entries are not always repeated.

Target: Cys101 (UniProt position 101, YVTSVCTGSLV)
Assay: crystallography
Details: data collected at 100 K; crystals grown at 20°C; 200 mM MgCl2 in reservoir; 100 mM tris-HCl (pH 8.3), sodium citrate (pH 6.0), or sodium acetate (pH 4.2, 5.0, 5.4); 23% PEG 3350, 2 mM DTT; substrate-free wild-type enzyme in crystals, reduced Cys101 (DTT present)

For “Isocyanide hydratase (ICH, PfICH) (Pseudomonas fluorescens)”, the pKa was 5.7 and 5 to 6.
